In article PMC4960544, “Production of full-length soluble Plasmodium falciparum RH5 protein vaccine using a Drosophila melanogaster Schneider 2 stable cell line system” (Scientific Reports, 2016):
Residue numbers refer to the chain shown, from its start.

Legend:
Experiment in all cases: SPR; basigin immobilised on a CM5 chip by amine coupling (850 RU); PfRH5 variant injected at 8-0.0625 uM, 120 s at 30 uL/min, 300 s dissociation; 20 C; 10 mM HEPES pH 7.4, 150 mM NaCl, 3 mM EDTA, 0.005% Tween-20, 2 mg/mL dextran, 1 mg/mL salmon sperm DNA; blank surface subtracted; global 1:1 interaction model
Conditions in all cases: both partners purified
[1] = target: T1, PfRH5 protein variant version 4.0 (3D7 sequence, N38Q and N214Q) (Plasmodium falciparum (3D7 clone), UniProt Q8IFM5 26-526, N38Q | N214Q)
T1 construct: only two of the putative N-linked glycosylation sites mutated (N38Q and N214Q); The construct has an N-terminal BiP insect signal peptide (…); No cleavage site for the His6 tag is described; No evidence of glycosylation was found for this variant; also called PfRH5 v4.0; v4.0; source: without the Con A step
T1 sequence: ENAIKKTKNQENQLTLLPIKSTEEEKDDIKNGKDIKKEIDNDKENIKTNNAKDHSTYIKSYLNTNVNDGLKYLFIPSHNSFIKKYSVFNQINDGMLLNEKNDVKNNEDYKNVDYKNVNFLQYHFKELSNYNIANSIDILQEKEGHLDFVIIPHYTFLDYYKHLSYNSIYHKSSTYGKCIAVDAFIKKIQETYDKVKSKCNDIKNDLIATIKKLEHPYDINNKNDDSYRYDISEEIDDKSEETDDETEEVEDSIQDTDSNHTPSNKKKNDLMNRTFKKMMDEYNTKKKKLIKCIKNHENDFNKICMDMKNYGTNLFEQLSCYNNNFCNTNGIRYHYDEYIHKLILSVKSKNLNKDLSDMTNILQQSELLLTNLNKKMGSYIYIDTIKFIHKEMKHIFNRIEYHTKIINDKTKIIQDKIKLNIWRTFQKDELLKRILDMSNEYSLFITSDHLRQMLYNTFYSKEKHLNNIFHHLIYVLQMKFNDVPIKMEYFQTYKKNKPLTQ

[2] = target: T2, PfRH5 protein variant version 2.0 (3D7 sequence, four N-linked glycosylation sequons mutated Thr to Ala) (Plasmodium falciparum (3D7 clone), UniProt Q8IFM5 26-526, Thr to Ala in the sequon starting at N38 (position 40 worked out) | Thr to Ala …)
T2 construct: The construct has an N-terminal BiP insect signal peptide (…); No cleavage site for the His6 tag is described; also called PfRH5 v2.0; v2.0
T2 sequence: T1 sequence with Q13N, T15A, Q189N, T191A, T261A, T274A

[3] = target: T3, PfRH5 protein variant version 5.0 (native 3D7 PfRH5 sequence) (Plasmodium falciparum (3D7 clone), UniProt Q8IFM5 26-526, N-linked glycan(s): one or both of the N-X-T sequons starting at N38 and N214 are glycosylated)
T3 construct: The construct has an N-terminal BiP insect signal peptide (…); No cleavage site for the His6 tag is described; also called PfRH5 v5.0; v5.0; source: without the Con A step
T3 sequence: T1 sequence with Q13N, Q189N

Measured: binding result

B1: recombinant basigin, immunoglobulin domains 1 and 2 of the short isoform (22-205) (domain or fragment)
chain: GAAGTVFTTVEDLGSKILLTCSLNDSATEVTGHRWLKGGVVLKEDALPGQKTEFKVDSDDQWGEYSCVFLPEPMGTANIQLHGPPRVKAVKSSEHINEGETAMLVCKSESVPPVTDWAWYKITDSEDKALMNGSESRFFVSSSQGRSELHIENLNMEADPGQYRCNGTSSKGSDQAIITLRVRSH
notes: additional glycine left at the N-terminus from the TEV cleavage site; basigin (CD147), immunoglobulin domains 1 and 2 of the short isoform, residues 22-205; numbers count on: the short isoform; basigin is spoken of as the red blood cell receptor of the human malaria parasite; also called CD147; PfRH5 receptor; not shown: His6, N-terminal, cleaved
binds: all assays above
